Results reported in article PMC6996395.
“Also recorded” adds a separate entry of the source.

Legend:
Experiment in all cases: in situ proximity ligation assay
Settings in all cases: reference: wild-type R-region
[1] = biological target: CFTR (split-CFTR: front half, R-region and back half as separate polypeptides) front half, 1-634 (UniProt P13569)
[2] = biological target: CFTR (split-CFTR: front half, R-region and back half as separate polypeptides) front half, 1-634 (UniProt P13569); remark: listed apart in the source
[3] = biological target: CFTR (split-CFTR: front half, R-region and back half as separate polypeptides) back half, 837-1480 (UniProt P13569)

Sequence of CFTR (split-CFTR: front half, R-region and back half as separate polypeptides) R-region, 635-836 (from UniProt P13569) S686D (P13569 1-634, stated change not applied): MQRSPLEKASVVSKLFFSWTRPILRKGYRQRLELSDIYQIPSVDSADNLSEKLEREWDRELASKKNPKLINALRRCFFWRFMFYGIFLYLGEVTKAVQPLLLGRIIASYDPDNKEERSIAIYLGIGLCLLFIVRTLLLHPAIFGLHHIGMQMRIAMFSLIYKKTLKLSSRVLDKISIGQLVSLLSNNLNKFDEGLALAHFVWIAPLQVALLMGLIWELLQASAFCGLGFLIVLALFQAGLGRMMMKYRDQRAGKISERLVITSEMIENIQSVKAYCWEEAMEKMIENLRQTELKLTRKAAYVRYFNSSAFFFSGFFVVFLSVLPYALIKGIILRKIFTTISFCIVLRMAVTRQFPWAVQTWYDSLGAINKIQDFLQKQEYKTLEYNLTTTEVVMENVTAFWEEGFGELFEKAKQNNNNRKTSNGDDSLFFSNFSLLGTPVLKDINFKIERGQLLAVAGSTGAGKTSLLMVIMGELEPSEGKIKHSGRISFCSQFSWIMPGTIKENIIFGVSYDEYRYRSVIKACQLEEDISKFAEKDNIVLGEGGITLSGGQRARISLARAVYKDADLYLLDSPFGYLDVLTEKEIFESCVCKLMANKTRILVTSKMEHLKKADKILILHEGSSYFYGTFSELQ

| other: PLA CTCF ([1]; sites S686) | other: PLA CTCF ([3]; sites S686) | other: PLA CTCF ([1]; sites S641,T682) | other: PLA CTCF ([3]; sites S641,T682) | Substance | other: PLA CTCF ([2]; sites S686) | other: PLA CTCF ([2]; sites S641,T682) |
| --- | --- | --- | --- | --- | --- | --- |
| stronger; reference 3.29 ± 0.24 |  |  |  | CFTR (split-CFTR: front half, R-region and back half as separate polypeptides) R-region, 635-836 (from UniProt P13569) S686D | same; reference 5.67 ± 0.55; also recorded: weaker; reference 7.91 ± 0.21 |  |
| weaker; reference 3.29 ± 0.24 | weaker; reference 3.41 ± 0.20 |  |  | CFTR (split-CFTR: front half, R-region and back half as separate polypeptides) R-region, 635-836 (from UniProt P13569) S686A | stronger; reference 3.90 ± 0.18; also recorded: same; reference 5.67 ± 0.55; also recorded: weaker; reference 7.91 ± 0.21 |  |
|  |  | stronger; reference 3.29 ± 0.24 | stronger; reference 3.41 ± 0.20 | CFTR (split-CFTR: front half, R-region and back half as separate polypeptides) R-region, 635-836 (from UniProt P13569) S641A/T682A |  | weaker; reference 3.90 ± 0.18; also recorded: stronger; reference 7.91 ± 0.21 |
